Literature values as cited in patent US20230127008A1, “STAT3-TARGETED BASE EDITOR THERAPEUTICS FOR THE TREATMENT OF MELANOMA AND OTHER CANCERS” (The Broad Institute, Inc., priority 2020, published 2023).

Test system: DNA
Conditions: SpCas9 mutation relative to SEQ ID NO: 74; UniProtKB-Q99ZW2 entry

B1: 175-307 deletion: SpCas9 mutation relative to canonical SpCas9, SEQ ID NO: 74 (protein)
chain: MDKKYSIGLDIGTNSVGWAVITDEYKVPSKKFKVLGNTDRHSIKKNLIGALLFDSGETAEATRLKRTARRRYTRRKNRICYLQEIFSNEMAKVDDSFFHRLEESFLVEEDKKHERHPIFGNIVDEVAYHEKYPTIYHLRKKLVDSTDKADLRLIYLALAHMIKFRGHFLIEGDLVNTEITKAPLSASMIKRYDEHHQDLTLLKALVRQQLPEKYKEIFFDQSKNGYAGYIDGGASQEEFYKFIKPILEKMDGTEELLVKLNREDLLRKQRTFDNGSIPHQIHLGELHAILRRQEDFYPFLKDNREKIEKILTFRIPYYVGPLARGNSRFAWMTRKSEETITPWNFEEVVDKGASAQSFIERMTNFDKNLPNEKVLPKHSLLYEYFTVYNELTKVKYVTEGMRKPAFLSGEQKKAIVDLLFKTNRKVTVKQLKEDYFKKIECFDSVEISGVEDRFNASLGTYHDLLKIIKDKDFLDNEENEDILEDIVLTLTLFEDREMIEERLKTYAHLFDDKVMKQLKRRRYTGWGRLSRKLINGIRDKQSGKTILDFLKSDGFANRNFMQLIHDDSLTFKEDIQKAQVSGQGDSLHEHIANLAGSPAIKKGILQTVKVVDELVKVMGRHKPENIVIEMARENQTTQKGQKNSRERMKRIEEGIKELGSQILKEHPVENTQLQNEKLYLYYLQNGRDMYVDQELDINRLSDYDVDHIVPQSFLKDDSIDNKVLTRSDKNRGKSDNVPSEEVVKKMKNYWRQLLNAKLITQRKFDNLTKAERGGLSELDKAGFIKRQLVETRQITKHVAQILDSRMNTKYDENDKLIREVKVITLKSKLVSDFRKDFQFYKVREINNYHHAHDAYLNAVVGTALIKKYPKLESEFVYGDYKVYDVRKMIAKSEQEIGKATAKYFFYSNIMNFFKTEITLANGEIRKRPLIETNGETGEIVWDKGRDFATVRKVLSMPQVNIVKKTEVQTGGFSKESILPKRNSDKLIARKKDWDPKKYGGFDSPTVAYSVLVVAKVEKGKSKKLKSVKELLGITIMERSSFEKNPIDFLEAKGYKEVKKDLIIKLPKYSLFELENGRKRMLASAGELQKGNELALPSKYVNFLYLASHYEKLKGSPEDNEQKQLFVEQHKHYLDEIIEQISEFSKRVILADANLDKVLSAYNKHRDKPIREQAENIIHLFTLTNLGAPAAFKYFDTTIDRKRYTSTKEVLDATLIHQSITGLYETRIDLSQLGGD
modifications: Streptococcus pyogenes
decreased DNA cleavage: About 50% decreased DNA cleavage
